Laboratory results published in article PMC4022879, “Interactions Outside the Proteinase-binding Loop Contribute Significantly to the Inhibition of Activated Coagulation Factor XII by Its Canonical Inhibitor from Corn*^([image sbox.jpg])” (The Journal of Biological Chemistry, 2014).
Residue numbers refer to the chain shown, from its start. Names may count otherwise.

Target: activated coagulation factor XI (FXIa) (Activated two-chain form, cleaved after residue 387 (precursor numbering). Heavy and light chains are disulfide-linked, and the whole is a disulfide-linked homodimer; N-glycosylated. The commercial fu)
Sequence (chain, as listed by the source, chain 1 of 2): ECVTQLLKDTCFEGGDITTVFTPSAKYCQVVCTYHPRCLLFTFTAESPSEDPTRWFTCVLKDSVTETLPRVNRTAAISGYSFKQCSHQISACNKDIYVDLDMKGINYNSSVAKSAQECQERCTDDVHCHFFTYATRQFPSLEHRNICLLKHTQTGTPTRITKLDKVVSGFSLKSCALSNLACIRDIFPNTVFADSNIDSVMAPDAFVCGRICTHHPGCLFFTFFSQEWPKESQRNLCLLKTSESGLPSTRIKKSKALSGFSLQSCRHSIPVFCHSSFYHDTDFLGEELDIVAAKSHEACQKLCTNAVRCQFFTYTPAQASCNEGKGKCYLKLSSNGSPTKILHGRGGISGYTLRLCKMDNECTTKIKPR
Sequence (chain, as listed by the source, chain 2 of 2): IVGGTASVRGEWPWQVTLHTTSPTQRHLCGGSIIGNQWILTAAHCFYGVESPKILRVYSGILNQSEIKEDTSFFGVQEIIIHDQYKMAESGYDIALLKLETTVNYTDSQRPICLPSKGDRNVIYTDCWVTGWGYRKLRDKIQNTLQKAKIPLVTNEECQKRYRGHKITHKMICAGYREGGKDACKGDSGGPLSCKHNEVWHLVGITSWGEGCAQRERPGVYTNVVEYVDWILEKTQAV
Assay: chromogenic enzyme inhibition assay; 200 pM FXIa, 500 μM S2366, 37 °C, 110 mM Tris-HCl pH 8.0, 250 mM NaCl, 1% BSA; residual activity in triplicate at at least six inhibitor concentrations; Ki from a linear fit of 1/v against inhibitor concentration
Conditions: both partners purified

B1: corn Hageman factor inhibitor (CHFI), control protein from Zea mays seeds (natural protein, UniProt P01088 29-138, looked up)
chain: SAGTSCVPGWAIPHNPLPSCRWYVTSRTCGIGPRLPWPELKRRCCRELADIPAYCRCTALSILMDGAIPPGPDAQLEGRLEDLPGCPREVQRGFAATLVTEAECNLATIS
notes: the mature protein has 127 amino acids, scissile bond Arg34-Leu35; numbers count on: the mature protein (PDB 1BEA); also called CHFI-ER; wild-type CHFI; source: bought: Enzyme Research Laboratories (from Z. mays seeds)
Ki: 5.4 ± 0.2 µM

B2: CHFI-1245, full-size CHFI with Cys29 substituted by Asp (natural protein, Zea mays, UniProt P01088 29-138, looked up)
chain: B1 chain with C29D
notes: numbers count on: the mature protein (PDB 1BEA); also called C29D mutant; source: E. coli Rosetta-Gami 2 DE3, purified (Ni2+-agarose); not shown: His6, N-terminal, kept; C-terminal tag of 1.5 kDa (His tag inferred from pET-28a), C-terminal, kept
Ki: 490 ± 110 µM
